This is an account of results in publication doi:10.1101/2021.04.01.437942 (bioRxiv, 2021).

The target of the assay is SARS-CoV-2 RBD, truncated version (residues 333–529) (SARS-CoV-2, UniProt P0DTC2). As to the kind of experiment: crystal structure. The conditions noted are these: both partners purified.

B1: COVA1–16 Fab (Fab, V domains shown)
VH: QVQLVQSGAEVKKPGASVKVSCKASGYTFTSYYMHWVRQAPGQGLEWMGIINSSGGSTSYAQKFQGRVTMTRDTSTSTVYMELSSLRSEDTAVYYCARPPRNYYDRSGYYQRAEYFQHWGQGTLVTVSS
VL: DIQLTQSPSSLSASVGDRVTITCQASQDISNYLNWYQQRPGKAPKLLIYDASNLETGVPSRFSGSGSGTDFTFTISSLQPEDIATYYCQQYDNPPLTFGGGTKLEIK
notes: also called Fab COVA1–16
Regarding B1, the binding result is recorded as “binds”.
